This passage reports EC50, MFI and EC50 (read off the curve) results from patent US20260116980A1.

For test [1], the target named is B7H3 on H358 tumor cells (UniProt Q5ZPR3). Description: flow cytometry on H358 cells, His-tag antibody iFluor 488 detection, four parameter logistic model.
For test [2] the target is unchanged. Description: flow cytometry on H358 cells, His-tag antibody iFluor 488 detection; MFImax of the four parameter fit.
Test [3] has the same target. Nature of the test: FACS on H358 cells, 1 h on ice, fluorescence-labelled anti-human Fc.

Sequence of B7H3 on H358 tumor cells (Q5ZPR3 29-534): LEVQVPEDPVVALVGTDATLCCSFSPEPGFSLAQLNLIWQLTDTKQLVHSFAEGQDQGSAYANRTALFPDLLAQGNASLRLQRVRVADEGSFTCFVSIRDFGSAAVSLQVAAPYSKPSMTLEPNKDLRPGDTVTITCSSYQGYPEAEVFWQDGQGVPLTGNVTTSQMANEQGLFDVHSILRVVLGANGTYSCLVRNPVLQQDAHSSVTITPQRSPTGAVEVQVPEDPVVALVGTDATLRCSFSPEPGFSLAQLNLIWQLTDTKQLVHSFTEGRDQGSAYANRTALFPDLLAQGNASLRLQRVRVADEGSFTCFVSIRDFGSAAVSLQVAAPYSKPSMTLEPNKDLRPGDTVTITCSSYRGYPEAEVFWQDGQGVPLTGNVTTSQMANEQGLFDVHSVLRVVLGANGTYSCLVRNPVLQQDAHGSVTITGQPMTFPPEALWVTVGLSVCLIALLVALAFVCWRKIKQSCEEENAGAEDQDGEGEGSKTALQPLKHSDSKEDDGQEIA

B1: scFv of BGA-6938 VL-VH (scFv)
scFv: EIVLTQSPGTLSLSPGERATLSCRTSQSINAILLAWYQQKPGQAPRLLIYGASSRATGIPDRFSGSGSGTDFTLSISRLEPEDFAVYYCQQYGSSPRTFGQGTKVEIKGGGGSGGGGSGGGGSGGGGSQVQLQESGPGLVKPSGTLSLTCAVSGGSISTSNYWNWVRQSPGKGLEWIGEIYPTGNTNYSPSLKSRVTISIDKSKNQFSLKLNSVTAADTAVYYCARGYNWFDPWGQGTLVTVSSHHHHHH
A word on the EC50: it is the concentration needed to bring the measured effect to its halfway point. A higher EC50 goes with a need for much substance. In the test with B7H3 on H358 tumor cells [1], B1 registered an EC50 of 2.05 nM. Also, the MFI with B7H3 on H358 tumor cells [2] was determined as 782000.

B2: BGA-6938 in wildtype IgG1/kappa format (antibody, V domains shown)
VH: QVQLQESGPGLVKPSGTLSLTCAVSGGSISTSNYWNWVRQSPGKGLEWIGEIYPTGNTNYSPSLKSRVTISIDKSKNQFSLKLNSVTAADTAVYYCARGYNWFDPWGQGTLVTVSS
VL: EIVLTQSPGTLSLSPGERATLSCRTSQSINAILLAWYQQKPGQAPRLLIYGASSRATGIPDRFSGSGSGTDFTLSISRLEPEDFAVYYCQQYGSSPRTFGQGTKVEIKR
What is called EC50 (read off the curve) is the concentration needed to bring the measured effect to its halfway point. On to B2, for which the EC50 (read off the curve) with B7H3 on H358 tumor cells [3] was 0.5 nM.
